Where two headings read alike, the source gives them in different places.
How the values were obtained:
[1] = target: T1, SARS-CoV-2 RBD protein, wild type (recombinant) (SARS-CoV-2, UniProt P0DTC2 319-541); assay: BLI
[2] = target: SARS-CoV-2 spike 'D614 or G614' (pseudovirus of Table 23) (SARS-CoV-2, UniProt P0DTC2 14-1273); assay: cell-based or functional assay
[3] = target: T2, SARS-CoV-2 spike 501Y.V2 (pseudovirus of Tables 8/23) (SARS-CoV-2); assay: cell-based or functional assay
[4] = target: T1, SARS-CoV-2 RBD protein, wild type …; assay: BLI (Octet), IgG culture supernatant
[5] = target: T2, SARS-CoV-2 spike 501Y.V2 (pseudovirus …); assay: cell-based or functional assay; remark: listed apart in the source

B1: No. 32 antibody (Full IgG; Table 3/4 numbering) (antibody, V domains shown)
VH: EVQLVQSGGGLIQPGGSLRLSCAASEFIVSSNYMTWVRQAPGKGLEWVSIIYPGGSTYYADSVKGRFTISRDNSKNTLYLRMNSLRAEDTAVYYCARDLPLTGTTLDYWGQGTLVTVSS
VL: not shown
[1]
  Kd: 0.132 nM
  koff: 0.000103 s⁻¹
  kon: 779000 M⁻¹ s⁻¹
[2]
  IC50: 0.00325 µg/mL
[3]
  IC50: 0.06 µg/mL
[4]
  Kd: 0.147 nM

B2: No. 139 antibody (Full IgG) (antibody, V domains shown)
VH: QITLKESGPTLVKPTQTLTLTCSFSGFSLSTSGVGVGWIRQPPGKALEWLALIDWDDNKYHTTSLKTRLTISKDTSKNQVVLTMTNMDPVDTATYYCARIPGFLRYRNRYYYYGMDVWGQGTTVTVSS
VL: ELVLTQPPSVSAAPGQKVTISCSGSSSNIGNNYVSWYQQLPGTAPKLLIYDNNKRPSGIPDRFSGSKSGTSATLGITGLQTGDEADYYCGTWDSSLSAGVFGGGTELTVL
[2]
  IC50: 0.00035 µg/mL
[3]
  IC50: 0.33 µg/mL
[5]
  IC50: 0.33 µg/mL

From patent publication KR20220139244A (dated 2022)
